The values below come from article PMC10879016.

Data set [1] can be described thus: anti-Myc Western of HEK293T medium, IgG-normalised. The settings on record: glycan lost; control: MMRN1 WT-Myc.
The nature of data set [2]: anti-Myc Western of medium, IgG-normalised. Conditions: glycan lost; control: WT HEK293T cells.

B1: multimerin-1 (MMRN1): T216A (protein)
parent chain: MKGARLFVLLSSLWSGGIGLNNSKHSWTIPEDGNSQKTMPSASVPPNKIQSLQILPTTRVMSAEIATTPEARTSEDSLLKSTLPPSETSAPAEGVRNQTLTSTEKAEGVVKLQNLTLPTNASIKFNPGAESVVLSNSTLKFLQSFARKSNEQATSLNTVGGTGGIGGVGGTGGVGNRAPRETYLSRGDSSSSQRTDYQKSNFETTRGKNWCAYVHTRLSPTVILDNQVTYVPGGKGPCGWTGGSCPQRSQKISNPVYRMQHKIVTSLDWRCCPGYSGPKCQLRAQEQQSLIHTNQAESHTAVGRGVAEQQQQQGCGDPEVMQKMTDQVNYQAMKLTLLQKKIDNISLTVNDVRNTYSSLEGKVSEDKSREFQSLLKGLKSKSINVLIRDIVREQFKIFQNDMQETVAQLFKTVSSLSEDLESTRQIIQKVNESVVSIAAQQKFVLVQENRPTLTDIVELRNHIVNVRQEMTLTCEKPIKELEVKQTHLEGALEQEHSRSILYYESLNKTLSKLKEVHEQLLSTEQVSDQKNAPAAESVSNNVTEYMSTLHENIKKQSLMMLQMFEDLHIQESKINNLTVSLEMEKESLRGECEDMLSKCRNDFKFQLKDTEENLHVLNQTLAEVLFPMDNKMDKMSEQLNDLTYDMEILQPLLEQGASLRQTMTYEQPKEAIVIRKKIENLTSAVNSLNFIIKELTKRHNLLRNEVQGRDDALERRINEYALEMEDGLNKTMTIINNAIDFIQDNYALKETLSTIKDNSEIHHKCTSDMETILTFIPQFHRLNDSIQTLVNDNQRYNFVLQVAKTLAGIPRDEKLNQSNFQKMYQMFNETTSQVRKYQQNMSHLEEKLLLTTKISKNFETRLQDIESKVTQTLIPYYISVKKGSVVTNERDQALQLQVLNSRFKALEAKSIHLSINFFSLNKTLHEVLTMCHNASTSVSELNATIPKWIKHSLPDIQLLQKGLTEFVEPIIQIKTQAALSNLTCCIDRSLPGSLANVVKSQKQVKSLPKKINALKKPTVNLTTVLIGRTQRNTDNIIYPEEYSSCSRHPCQNGGTCINGRTSFTCACRHPFTGDNCTIKLVEENALAPDFSKGSYRYAPMVAFFASHTYGMTIPGPILFNNLDVNYGASYTPRTGKFRIPYLGVYVFKYTIESFSAHISGFLVVDGIDKLAFESENINSEIHCDRVLTGDALLELNYGQEVWLRLAKGTIPAKFPPVTTFSGYLLYRT
B1: the expression_or_secretion result in data set [1] was “decreases”.

B2: multimerin-1 (MMRN1): T1055A (protein)
parent chain: B1 parent chain
As to B2, in data set [1], the expression_or_secretion entry is “decreases”.

B3: multimerin-1 (MMRN1): POFUT1 KO (protein)
parent chain: B1 parent chain
For the protein B3, in data set [2], the expression_or_secretion entry is listed as “abolishes”.

B4: multimerin-1 (MMRN1): POFUT2 KO (protein)
parent chain: B1 parent chain
Regarding B4, the expression_or_secretion result in data set [2] was “no change”.
